Target: the molecule itself
Test: SEC

B1: HutZ (residues 13-150, His tagged) (domain or fragment)
chain: RLEPEIKEFRQERKTLQLATVDAQGRPNVSYAPFVQNQEGYFVLISHIARHARNLEVNPQVSIMMIEDETEAKQLFARKRLTFDAVASMVERDSELWCQVIAQMGERFGEIIDGLSQLQDFMLFRLQPEQGLFVKGFG
notes: also called truncated HutZ; source: E. coli BL21 (DE3), purified (Ni-chelating Sepharose, Source 15Q, Superdex-200)
stoichiometry N: 2
